From patent US12006343B2, “C4BP-based compounds for treating immunological diseases” (FUNDACIO INSTITUT D'INVESTIGACIO BIOMEDICA DE BELLVITGE …, priority 2017, dated 2024)
“Also recorded” adds a separate entry of the source.

Experiments:
[1] = mouse, in vivo, cited from earlier work
[2] = tested on: human monocyte-derived DCs; assay: Immunomodulatory activity over human monocyte-derived DCs: CD83/CD86 surface expression by flow cytometry after LPS maturation; type: cell-based; details: FIG. 4
Experimental: In Vitro Functional Assessment of the Immunomodulatory Activity of Full-Length C4BP(β−) and C4BP(β−) Variants Over DCs
The inventors used for the in vitro study both C4BP(β+) (WT) and recombinant C4BP(β−) isoforms, and the above-referred mutants or variants: Mutant 1 and Mutant 2. C4BP(β+) isoforms refer to the major C4BP α7β1 plus the minor C4BP α6β1 isoforms (both in complex with ProS) purified from pooled human plasma.
RPMI 1640 was supplemented with 100 μg/ml of streptomycin, 100 IU/ml of penicillin, 2 mM L-glutamine (all from Invitrogen, Carlsbad, CA) and 10% heat-inactivated fetal bovine serum (Linus, Cultek, Spain) (complete medium), unless otherwise stated.
Peripheral blood mononuclear cells (PBMCs) were obtained from buffy coat preparations collected from healthy donors from the Blood and Tissue Bank (Barcelona, Spain) after Ficoll-Paque™ density centrifugation (GE Healthcare Bio-Sciences AB; Uppsala, Sweden). For surface phenotype determination, monocytes were plated at 1×10^6 cells/ml in 60 mm culture plates (Corning, Spain), in RPMI 1640 medium without serum, and allowed to adhere for 2 h at 37° C. in 5% CO2. The non-adherent cells were removed by washing in PBS.
Monocyte-derived DCs were generated supplementing the monocyte cultures with complete RPMI 1640 medium plus GM-CSF (800 UI/ml) and IL-4 (500 UI/ml) (both from Gentaur, Kampenhout, Belgium) at day 0 and day 3 of culture. For DC maturation, at day 5 iDCs were further stimulated for 48 h with 5 μg/ml LPS (Escherichia coli 055.B5, Sigma L2880, Copenhagen, Denmark).
Staining using the fluorescent dye 7-amino-actinomycin D (7-AAD) (BD Pharmigen) and flow cytometry analysis was employed to assess the viability status of C4BP-treated and untreated DCs.
Cell surface phenotypes were analyzed by flow cytometry using the following mAbs: FITC-conjugated anti-CD83 (HB15a) and PE-conjugated anti-CD86 (HA5.2B7) (all from Beckman-Coulter). The respective isotype controls FITC-conjugated anti-IgG2b (H2) and PE-conjugated anti-IgG2b (H2), were from the same commercial sources. After washing with PBS, cells were subsequently stained with 3 μl mAb/10^5 cells in 100 μl of FACS buffer (PBS containing 1% BSA and 0.1% sodium azide) for 20 min at room temperature. To exclude dead cells and debris, DCs were gated according to forward scatter (FSC) and side scatter (SSC) parameters. Stained cells were analyzed using a FACSCalibur (Becton Dickinson, Franklin Lakes, NJ) equipped with CellQuestPro software (Becton Dickinson).
In Vitro Functional Assessment of C4BP(β−) Immunomodulatory Activity Over DCs
The inventors used for the in vitro study both C4BP(+) and C4BP(β−) isoforms. C4BP(3+) isoforms refer to the major C4BP α7β1 plus the minor C4BP α6β1 isoforms (both in complex with ProS) purified from pooled human plasma, as previously described (Dahlbäck B. 1983. Biochem J., 209:847-56).

lupus-prone NZBWF1 mice [3] = assay: Renal function (24 h proteinuria) in spontaneous SLE mouse model NZBWF1; type: in vivo; details: for delay in the onset of proteinuria: vs PBS-treated control
Experimental: Mice, Study Design and Follow Up
NZB/NZW F1 or NZBWF1/J (Charles-River), NZB/NZW F1 (Jackson, code 100008) are a hybrid cross between NZB/B1NJ (Jackson, code 000684) Female x NZW/LacJ (Jackson, code 001058) Male. NZBWF1/J mice develop an autoimmune disease resembling human systemic lupus erythematosus. The inventors used 58 females (30-35 g/each) aged 15 weeks for the study (4-5 animals per cage). The animals were maintained under standard laboratory conditions, at 20-24° C. and 40-70% relative humidity, with 12-hour fluorescent light/12-hour dark cycle. They were feed standard diet and tap water ad libitum. […]
Dose Selection and Administration.
The selection of the C4BP(β−) dose for in vivo administration was based in previous studies employing complement-related proteins in immune-inflammatory pathologies. Blom et al. (Blom et al. 2009. Ann. Rheum. Dis., 68:136-42) used the C4BP isoform lacking β chain in experimental collagen-induced arthritis (CIA) and collagen antibody-induced arthritis (CAIA) mice to investigate the influence of complement activity in the treatment of rheumatoid arthritis. These authors administered intraperitoneally C4BP (2 mg/mouse) using a multiple dose-regimen once every two days in preventive and therapeutic experiments. Thus, in the current study, C4BP(β−) was administered both intraperitoneally (IP) and subcutaneously (SC) into NZBWF1 mice for three months (between six and nine months of age).
Alperovich et al (Alperovich et al. 2007. Lupus, 16:18-24) administered cyclophosphamide (CYP) to NZBWF1 mice at 50 mg/kg IP every 10 days.
(§1) Both IP and SC administrations for C4BP(β−), CYP and PBS (150 μl/each) were performed with a 25-gauge needle during 30 s, after rinsing the skin with 70% ethanol.
(§2) The detailed administration schedule was as follows (Table 5):
Body weight was determined twice monthly from the beginning to the end of follow-up. Mice were placed in metabolic cages to collect 24 h urine specimens before the onset of treatment and monthly thereafter. Blood was obtained from the tail vein at monthly intervals.
Renal Function Analysis: Proteinuria
24 h urinary protein was determined by pyrogallol red (Olympum Autoanalyzer AU400, Hamburg, Germany) in the Veterinary Clinical Biochemistry Laboratory from Universitat Autonoma de Barcelona.
(§3) One-way analysis of variance (ANOVA) with post hoc tests was performed to compare proteinuria throughout the follow up. Survival data were analyzed using Kaplan-Meier curves and long-rank test. P value<0.05 was considered significant. Data are expressed as mean±SEM.

lupus-prone NZBWF1 mice [4] = assay: Kaplan-Meier survival in spontaneous SLE mouse model NZBWF1; type: in vivo; details: for mice still alive at the end of the study: 330 days
Experimental: NZBWF1/J mice develop an autoimmune disease resembling human systemic lupus erythematosus. […] The animals were maintained under standard laboratory conditions, at 20-24° C. and 40-70% relative humidity, with 12-hour fluorescent light/12-hour dark cycle. They were feed standard diet and tap water ad libitum.
as §1, §2, §3

[5] = IP, 5 μg/mouse once every two weeks
[6] = IP, 50 μg/mouse once every two weeks
[7] = IP, 500 μg/mouse once every two weeks

B1: C4BP: human C4b-binding protein as used by Blom et al. 2009, intraperitoneally in mice (protein, UniProt P04003 49-597; P20851 18-252, looked up)
C4b-binding protein alpha …: NCGPPPTLSFAAPMDITLTETRFKTGTTLKYTCLPGYVRSHSTQTLTCNSDGEWVYNTFCIYKRCRHPGELRNGQVEIKTDLSFGSQIEFSCSEGFFLIGSTTSRCEVQDRGVGWSHPLPQCEIVKCKPPPDIRNGRHSGEENFYAYGFSVTYSCDPRFSLLGHASISCTVENETIGVWRPSPPTCEKITCRKPDVSHGEMVSGFGPIYNYKDTIVFKCQKGFVLRGSSVIHCDADSKWNPSPPACEPNSCINLPDIPHASWETYPRPTKEDVYVVGTVLRYRCHPGYKPTTDEPTTVICQKNLRWTPYQGCEALCCPEPKLNNGEITQHRKSRPANHCVYFYGDEISFSCHETSRFSAICQGDGTWSPRTPSCGDICNFPPKIAHGHYKQSSSYSFFKEEIIYECDKGYILVGQAKLSCSYSHWSAPAPQCKALCRKPELVNGRLSVDKDQYVEPENVTIQCDSGYGVVGPQSITCSGNRTWYPEVPKCEWETPEGCEQVLTGKRLMQCLPNPEDVKMALEVYKLSLEIEQLELQRDSARQSTLDKEL
C4b-binding protein beta chain: SDAEHCPELPPVDNSIFVAKEVEGQILGTYVCIKGYHLVGKKTLFCNASKEWDNTTTECRLGHCPDPVLVNGEFSSSGPVNVSDKITFMCNDHYILKGSNRSQCLEDHTWAPPFPICKSRDCDPPGNPVHGYFEGNNFTLGSTISYYCEDRYYLVGVQEQQCVDGEWSSALPVCKLIQEAPKPECEKALLAFQESKNLCEAMENFMQQLKESGMTMEELKYSLELKKAELKAKLL
- initial amount remaining in the circulation ([1]; ip): 3%
- clearance from the circulation [1]: cleared fast

B2: rC4BP(β−): recombinant C4BP isoform lacking the β-chain, transiently produced in HEK293 cells (Expi293 cells) (protein, UniProt P04003 49-597, looked up)
C4b-binding protein alpha …: B1 C4b-binding protein alpha …
modifications: alpha-chain-only isoform, recombinant
- semi-mature, anti-inflammatory phenotype conferred to LPS-matured MoDCs (immunomodulatory activity) ([2]; MoDCs pre-incubated with 5 μg/ml protein, LPS challenge): able to confer an analogous semi-mature, anti-inflammatory phenotype
- CD83 and CD86 surface marker expression ([2]; human MoDCs, 5 μg/ml C4BP isoform, LPS 5 μg/ml): restrain similarly CD83 and CD86 surface marker expression
- proteinuria by week 37 (lupus-prone NZBWF1 mice [3]; [5]): severe proteinuria indistinguishable from the PBS-treated control group
- delay in the onset of proteinuria (lupus-prone NZBWF1 mice [3]; [5]): 2 week
- proteinuria by week 37 (lupus-prone NZBWF1 mice [3]; [6]): severe proteinuria indistinguishable from the PBS-treated control group
- delay in the onset of proteinuria (lupus-prone NZBWF1 mice [3]; [6]): 2 week
- proteinuria level at the end of the study (week 37) (lupus-prone NZBWF1 mice [3]; [7]): ~300 mg protein/kg
- delay in the onset of proteinuria (lupus-prone NZBWF1 mice [3]; [7]): 6 weeks
- proteinuria by week 37 (end of the study) (lupus-prone NZBWF1 mice [3]; SC, 50 μg once every two weeks): < 200 mg/kg
- onset / development of proteinuria (lupus-prone NZBWF1 mice [3]; mouse, in vivo, sc): significantly delayed; also recorded: strongest attenuation of proteinuria development
- efficacy, SC 50 μg/mouse vs IP 500 μg/mouse (lupus-prone NZBWF1 mice [3]; same regimen, SLE mouse model): more effective than the intraperitoneal administration of 500 μg/mouse
- survival (lupus-prone NZBWF1 mice [4]; IP, 5 μg once every two weeks, all mice died at end of study (330 days)): performed similarly to the control PBS-treated group
- mice still alive at the end of the study (lupus-prone NZBWF1 mice [4]; IP, 50 μg once every two weeks): 20-30%
- mice still alive at the end of the study (lupus-prone NZBWF1 mice [4]; IP, 500 μg once every two weeks): 20-30%
- mice active at the end of the study (lupus-prone NZBWF1 mice [4]; SC route, all treatment groups): maintained mice active at the end of the study
- mice alive at 330 days (lupus-prone NZBWF1 mice [4]; SC, 50 μg once every two weeks): more than 60%
- survival respect to control PBS-treated mice (lupus-prone NZBWF1 mice [4]; SC, 50 μg once every two weeks): appreciably delay their survival; also recorded: best survival rate
- progress of the disease (lupus-prone NZBWF1 mice [4]; SC, 50 μg, NZBWF1 mice): substantial slowing of the progress of the disease
- statistical analysis of Kaplan-Meier survival curves vs control PBS-treated group (lupus-prone NZBWF1 mice [4]; any of the rC4BP(β−)-treated groups, n=6): no statistically significant differences
- survival, subcutaneous route compared with intraperitoneal route (lupus-prone NZBWF1 mice [4]; doses of 5 μg and 50 μg, FIG. 6): higher
